T1: FPR1 (UniProt P21462 1-350, limits assumed)
T1 sequence (looked up): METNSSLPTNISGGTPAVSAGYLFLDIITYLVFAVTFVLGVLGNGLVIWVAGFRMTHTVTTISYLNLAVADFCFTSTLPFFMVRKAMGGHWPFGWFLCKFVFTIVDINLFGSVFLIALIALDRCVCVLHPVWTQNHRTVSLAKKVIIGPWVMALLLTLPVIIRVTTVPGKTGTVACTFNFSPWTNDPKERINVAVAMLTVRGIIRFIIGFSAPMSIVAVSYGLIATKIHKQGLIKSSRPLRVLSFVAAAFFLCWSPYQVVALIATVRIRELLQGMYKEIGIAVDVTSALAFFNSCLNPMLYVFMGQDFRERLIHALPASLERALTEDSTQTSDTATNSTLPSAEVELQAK

T2: formyl peptide receptor 2 (FPR2) (UniProt P25090 1-351, limits assumed)
T2 sequence (looked up): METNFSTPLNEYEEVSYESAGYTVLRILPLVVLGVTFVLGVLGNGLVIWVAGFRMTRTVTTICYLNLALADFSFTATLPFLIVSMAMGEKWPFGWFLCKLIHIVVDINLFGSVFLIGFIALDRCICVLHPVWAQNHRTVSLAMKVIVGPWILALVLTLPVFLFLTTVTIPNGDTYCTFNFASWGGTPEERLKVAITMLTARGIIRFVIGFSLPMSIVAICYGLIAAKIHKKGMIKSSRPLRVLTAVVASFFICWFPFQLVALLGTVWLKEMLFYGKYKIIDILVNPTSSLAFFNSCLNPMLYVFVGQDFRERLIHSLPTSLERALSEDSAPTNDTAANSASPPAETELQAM

B1: peptide of SEQ ID NO 133 (peptide)
peptide: IKFKPM
HELM: PEPTIDE1{I.K.F.K.P.[dM].[am]}$$$$V2.0; N-terminus assumed
SMILES: CC[C@H](C)[C@H](N)C(=O)N[C@@H](CCCCN)C(=O)N[C@@H](Cc1ccccc1)C(=O)N[C@@H](CCCCN)C(=O)N1CCC[C@H]1C(=O)N[C@H](CCSC)C(N)=O
B2: peptide of SEQ ID NO 134 (peptide)
peptide: IKYKVM
HELM: PEPTIDE1{I.K.Y.K.V.[dM].[am]}$$$$V2.0; N-terminus assumed
SMILES: CC[C@H](C)[C@H](N)C(=O)N[C@@H](CCCCN)C(=O)N[C@@H](Cc1ccc(O)cc1)C(=O)N[C@@H](CCCCN)C(=O)N[C@H](C(=O)N[C@H](CCSC)C(N)=O)C(C)C
B3: peptide of SEQ ID NO 135 (peptide)
peptide: IKYKVM
HELM: PEPTIDE1{[ac].I.K.Y.K.V.[dM].[am]}$$$$V2.0
SMILES: CC[C@H](C)[C@H](NC(C)=O)C(=O)N[C@@H](CCCCN)C(=O)N[C@@H](Cc1ccc(O)cc1)C(=O)N[C@@H](CCCCN)C(=O)N[C@H](C(=O)N[C@H](CCSC)C(N)=O)C(C)C
B4: peptide of SEQ ID NO 136 (peptide)
peptide: IKYKVM
HELM: PEPTIDE1{[CCCC(=O)[*:2]].I.K.Y.K.V.[dM].[am]}$$$$V2.0
SMILES: CCCC(=O)N[C@H](C(=O)N[C@@H](CCCCN)C(=O)N[C@@H](Cc1ccc(O)cc1)C(=O)N[C@@H](CCCCN)C(=O)N[C@H](C(=O)N[C@H](CCSC)C(N)=O)C(C)C)[C@@H](C)CC
B5: peptide of SEQ ID NO 138 (peptide)
peptide: PKYKVM
HELM: PEPTIDE1{P.K.Y.K.V.[dM].[am]}$$$$V2.0; N-terminus assumed
SMILES: CSCC[C@@H](NC(=O)[C@@H](NC(=O)[C@H](CCCCN)NC(=O)[C@H](Cc1ccc(O)cc1)NC(=O)[C@H](CCCCN)NC(=O)[C@@H]1CCCN1)C(C)C)C(N)=O
B6: peptide of SEQ ID NO 139 (peptide)
peptide: PKYKVM
HELM: PEPTIDE1{[ac].P.K.Y.K.V.[dM].[am]}$$$$V2.0
SMILES: CSCC[C@@H](NC(=O)[C@@H](NC(=O)[C@H](CCCCN)NC(=O)[C@H](Cc1ccc(O)cc1)NC(=O)[C@H](CCCCN)NC(=O)[C@@H]1CCCN1C(C)=O)C(C)C)C(N)=O
B7: peptide of SEQ ID NO 140 (peptide)
peptide: PKYKVM
HELM: PEPTIDE1{[CCCC(=O)[*:2]].P.K.Y.K.V.[dM].[am]}$$$$V2.0
SMILES: CCCC(=O)N1CCC[C@H]1C(=O)N[C@@H](CCCCN)C(=O)N[C@@H](Cc1ccc(O)cc1)C(=O)N[C@@H](CCCCN)C(=O)N[C@H](C(=O)N[C@H](CCSC)C(N)=O)C(C)C
B8: peptide of SEQ ID NO 141 (peptide)
peptide: PKYKVM
HELM: PEPTIDE1{[CCCCCCCC(=O)[*:2]].P.K.Y.K.V.[dM].[am]}$$$$V2.0
SMILES: CCCCCCCC(=O)N1CCC[C@H]1C(=O)N[C@@H](CCCCN)C(=O)N[C@@H](Cc1ccc(O)cc1)C(=O)N[C@@H](CCCCN)C(=O)N[C@H](C(=O)N[C@H](CCSC)C(N)=O)C(C)C
B9: peptide of SEQ ID NO 142 (peptide)
peptide: IKYKPM
HELM: PEPTIDE1{I.K.Y.K.P.[dM].[am]}$$$$V2.0; N-terminus assumed
SMILES: CC[C@H](C)[C@H](N)C(=O)N[C@@H](CCCCN)C(=O)N[C@@H](Cc1ccc(O)cc1)C(=O)N[C@@H](CCCCN)C(=O)N1CCC[C@H]1C(=O)N[C@H](CCSC)C(N)=O
B10: peptide of SEQ ID NO 15 (peptide)
peptide: MRYKVM
HELM: PEPTIDE1{[CCCC(=O)[*:2]].M.R.Y.K.V.[dM].[am]}$$$$V2.0
SMILES: CCCC(=O)N[C@@H](CCSC)C(=O)N[C@@H](CCCNC(=N)N)C(=O)N[C@@H](Cc1ccc(O)cc1)C(=O)N[C@@H](CCCCN)C(=O)N[C@H](C(=O)N[C@H](CCSC)C(N)=O)C(C)C
B11: peptide of SEQ ID NO 143 (peptide)
peptide: IKYKPM
HELM: PEPTIDE1{[ac].I.K.Y.K.P.[dM].[am]}$$$$V2.0
SMILES: CC[C@H](C)[C@H](NC(C)=O)C(=O)N[C@@H](CCCCN)C(=O)N[C@@H](Cc1ccc(O)cc1)C(=O)N[C@@H](CCCCN)C(=O)N1CCC[C@H]1C(=O)N[C@H](CCSC)C(N)=O
B12: peptide of SEQ ID NO 144 (peptide)
peptide: IKYKPM
HELM: PEPTIDE1{[CCCC(=O)[*:2]].I.K.Y.K.P.[dM].[am]}$$$$V2.0
SMILES: CCCC(=O)N[C@H](C(=O)N[C@@H](CCCCN)C(=O)N[C@@H](Cc1ccc(O)cc1)C(=O)N[C@@H](CCCCN)C(=O)N1CCC[C@H]1C(=O)N[C@H](CCSC)C(N)=O)[C@@H](C)CC
B13: peptide of SEQ ID NO 146 (peptide)
peptide: HKYKPM
HELM: PEPTIDE1{H.K.Y.K.P.[dM].[am]}$$$$V2.0; N-terminus assumed
SMILES: CSCC[C@@H](NC(=O)[C@@H]1CCCN1C(=O)[C@H](CCCCN)NC(=O)[C@H](Cc1ccc(O)cc1)NC(=O)[C@H](CCCCN)NC(=O)[C@@H](N)Cc1c[nH]cn1)C(N)=O
B14: peptide of SEQ ID NO 147 (peptide)
peptide: HKYKPM
HELM: PEPTIDE1{[ac].H.K.Y.K.P.[dM].[am]}$$$$V2.0
SMILES: CSCC[C@@H](NC(=O)[C@@H]1CCCN1C(=O)[C@H](CCCCN)NC(=O)[C@H](Cc1ccc(O)cc1)NC(=O)[C@H](CCCCN)NC(=O)[C@H](Cc1c[nH]cn1)NC(C)=O)C(N)=O
B15: peptide of SEQ ID NO 148 (peptide)
peptide: HKYKPM
HELM: PEPTIDE1{[CCCC(=O)[*:2]].H.K.Y.K.P.[dM].[am]}$$$$V2.0
SMILES: CCCC(=O)N[C@@H](Cc1c[nH]cn1)C(=O)N[C@@H](CCCCN)C(=O)N[C@@H](Cc1ccc(O)cc1)C(=O)N[C@@H](CCCCN)C(=O)N1CCC[C@H]1C(=O)N[C@H](CCSC)C(N)=O
B16: peptide of SEQ ID NO 149 (peptide)
peptide: HKYKPM
HELM: PEPTIDE1{[CCCCCCCC(=O)[*:2]].H.K.Y.K.P.[dM].[am]}$$$$V2.0
SMILES: CCCCCCCC(=O)N[C@@H](Cc1c[nH]cn1)C(=O)N[C@@H](CCCCN)C(=O)N[C@@H](Cc1ccc(O)cc1)C(=O)N[C@@H](CCCCN)C(=O)N1CCC[C@H]1C(=O)N[C@H](CCSC)C(N)=O
B17: peptide of SEQ ID NO 154 (peptide)
peptide: RWRYLYM
HELM: PEPTIDE1{R.W.R.Y.L.Y.[dM].[am]}$$$$V2.0; N-terminus assumed
SMILES: CSCC[C@@H](NC(=O)[C@H](Cc1ccc(O)cc1)NC(=O)[C@H](CC(C)C)NC(=O)[C@H](Cc1ccc(O)cc1)NC(=O)[C@H](CCCNC(=N)N)NC(=O)[C@H](Cc1c[nH]c2ccccc12)NC(=O)[C@@H](N)CCCNC(=N)N)C(N)=O
B18: peptide of SEQ ID NO 156 (peptide)
peptide: RWRYFYM
HELM: PEPTIDE1{R.W.R.Y.F.Y.[dM].[am]}$$$$V2.0; N-terminus assumed
SMILES: CSCC[C@@H](NC(=O)[C@H](Cc1ccc(O)cc1)NC(=O)[C@H](Cc1ccccc1)NC(=O)[C@H](Cc1ccc(O)cc1)NC(=O)[C@H](CCCNC(=N)N)NC(=O)[C@H](Cc1c[nH]c2ccccc12)NC(=O)[C@@H](N)CCCNC(=N)N)C(N)=O
B19: peptide of SEQ ID NO 157 (peptide)
peptide: RWRYTYM
HELM: PEPTIDE1{R.W.R.Y.T.Y.[dM].[am]}$$$$V2.0; N-terminus assumed
SMILES: CSCC[C@@H](NC(=O)[C@H](Cc1ccc(O)cc1)NC(=O)[C@@H](NC(=O)[C@H](Cc1ccc(O)cc1)NC(=O)[C@H](CCCNC(=N)N)NC(=O)[C@H](Cc1c[nH]c2ccccc12)NC(=O)[C@@H](N)CCCNC(=N)N)[C@@H](C)O)C(N)=O
B20: peptide of SEQ ID NO 17 (peptide)
peptide: MKYKVM
HELM: PEPTIDE1{M.K.Y.K.V.[dM].[am]}$$$$V2.0; N-terminus assumed
SMILES: CSCC[C@H](N)C(=O)N[C@@H](CCCCN)C(=O)N[C@@H](Cc1ccc(O)cc1)C(=O)N[C@@H](CCCCN)C(=O)N[C@H](C(=O)N[C@H](CCSC)C(N)=O)C(C)C

Assays:
FPR1 = target: T1, FPR1; assay: cell-based or functional assay
[1] = target: T2, formyl peptide receptor 2 (FPR2); assay: cell-based or functional assay

Row | Binder | EC50 for [Ca2+] (FPR1) [µM] | EC50 for [Ca2+] [1] [µM]
1 | B1 | > 10 | < 0.01
2 | B2 | > 10 | < 0.01
3 | B3 | > 10 | < 0.01
4 | B4 | > 10 | < 0.01
5 | B5 | > 10 | < 0.01
6 | B6 | > 10 | < 0.01
7 | B7 | > 10 | < 0.01
8 | B8 | > 10 | < 0.01
9 | B9 | > 10 | < 0.01
10 | B10 | > 10 | < 0.01
11 | B11 | > 10 | < 0.01
12 | B12 | > 10 | < 0.01
13 | B13 | > 10 | < 0.01
14 | B14 | > 10 | < 0.01
15 | B15 | > 10 | < 0.01
16 | B16 | > 10 | < 0.01
17 | B17 | > 10 | < 0.01
18 | B18 | > 10 | < 0.01
19 | B19 | > 10 | < 0.01
20 | B20 | > 10 | < 0.01

From patent publication US20250361268A1, “NOVEL ANTI-INFLAMMATORY PEPTIDE AND USE THEREOF” (NOVACELL TECHNOLOGY INC., priority 2022, published 2025)
